Legend:
[1] = biological target: T1, human HLA-A*0201 molecule (human, UniProt P04439 25-302 at identity 0.94)); assay: binding assay (stabilization assay), T2-0201 cells, flow cytometry (non-peptide 84.50)
T1 construct: whole, on cells; MHC class I molecule on the surface of T2-0201 cells; also called HLA-A0201 class I molecule
T1 MHC heavy: not shown
Description: (§1) Next, a binding ability to an HLA-A0201 molecule was actually analyzed by an MHC stabilization assay.

[2] = biological target: T1, human HLA-A*0201 molecule; assay: binding assay (stabilization assay), T2-0201 cells, flow cytometry
Description: as §1

[3] = biological target: T1, human HLA-A*0201 molecule; assay: MHC stabilization assay, T2-0201 cells, flow cytometry of surface HLA-A0201
Description: as §1

[4] = biological target: T1, human HLA-A*0201 molecule; assay: MHC stabilization assay, T2-0201 cells, flow cytometry of surface HLA-A0201 (non-peptide 275.7)
Description: as §1

Binder	MIF [1]	MFI [4]	also measured
LLLDPIFKV (Modified-type peptide) [eEF2292-300 2L peptide]	339	–	–
LLLDPIFKL (Modified-type peptide) [eEF2292-300 2L9L peptide]	319	–	–
LMLDPIFKL (Modified-type peptide) [eEF2292-300 2M9L peptide]	275	–	–
LMLDPIFKV (Modified-type peptide) [eEF2292-300 2M peptide]	313	–	–
LILDPIFKV (Synthesized 9-residue peptide of eEF2; also called candidate peptide number 1) [eEF2292-300 peptide]	312	781	% MIF increase [2]: 269%; % MFI increase [3]: 183%
RLMEPIYLV (Synthesized 9-residue peptide of eEF2; also called candidate peptide number 2) [eEF2739-747 peptide]	–	665	–
KLVEGLKRL (Synthesized 9-residue peptide of eEF2; also called candidate peptide number 3) [eEF2519-527 peptide]	–	438	–
YLNEIKDSV (Synthesized 9-residue peptide of eEF2; also called candidate peptide number 4) [eEF2671-679 peptide]	–	523	–
ILTDITKGV (Synthesized 9-residue peptide of eEF2; also called candidate peptide number 5) [eEF2661-669 peptide]	–	828	–
LMMYISKMV (Synthesized 9-residue peptide of eEF2; also called candidate peptide number 6) [eEF2394-402 peptide]	–	448	–
KLPRTFCQL (Synthesized 9-residue peptide of eEF2; also called candidate peptide number 7) [eEF2284-292 peptide]	–	449	–
